The supplement of paper PMC9732359
± gives the uncertainty stated by the source.

Assay: protein stability index of a GFP-peptide fusion (yeast GPS) (PSI 1-4); higher = more stable; sorted into four equal gates, so the index is relative within each strain
Details: doa10∆
How it was run: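 The protein stability index of a peptide was calculated by multiplying its read frequency in each gate by that gate's number and adding the products. The peptides were tiled 17-residue stretches of yeast proteins, fused downstream of GFP on a Cherry-expressing plasmid and carried in yeast as a pooled library. Mid-log cultures in leucine-free medium were sorted into four equal gates by GFP/Cherry ratio, and each gate's plasmids were PCR-amplified and Illumina-sequenced.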

Sequence	protein stability index
GSMFSGDNTSDVDMEDR [RRI1]	2.01 ± 0.14
GSNQKPKYEPPVQSKFG [RPT2]	2.94 ± 0.13
GSQILSGVMDKSVLGDG [RPO31]	3.49 ± 0.12
GSRTTTNHVLEVFSVLG [RPO31]	2.93 ± 0.13
GSSAGMNGRSLTYAQQQ [SNF6]	2.99 ± 0.083
GSSNKAVVQTVKGLLNT [YJL039C/NUP192]	3.27 ± 0.14

Same assay, conditions: pdr5∆

Sequence	protein stability index
FSVRTKDSNKDVVVEGL [RPL10]	2.32 ± 0.055
FSYQEVEFKLPKELVPS [CDC53]	2.16 ± 0.045
FTGEKPIITGSTSTSSS [MED8]	2.7 ± 0.054
FTVDKKIAERSLLLKNY [SKP1]	3.11 ± 0.14
FVFQTVFDTAITSWYEN [QCR9]	1.6 ± 0.039
FVIGEQGKPYISLPKGK [RPS4A]	3.21 ± 0.065
FVKNIRMLSFEDISKAT [RPN9]	1.86 ± 0.076
FVLLEIEPVTKVSSLKM [YCS4]	2.18 ± 0.066
FWSFLDSLIFKDSSLNY [YJL039C/NUP192]	2.74 ± 0.078
FYDYIKERSIVVGRTTR [REC8]	1.72 ± 0.064
FYGVLDQGNGWLYVYET [RPN6]	2.65 ± 0.073
FYQQVHKKDRLQYLPLY [SIR4]	1.77 ± 0.058
GAETDELSMIMEHFSQQ [RPS12]	3.25 ± 0.1
GAFTIALAYAGTGNNSA [RPN2]	2.32 ± 0.083
GAGGLNPFTSATSSTNA [YOR098C/NUP1]	2.07 ± 0.18
GAGIERELARIKKYASV [RPL3]	3.46 ± 0.17
GAQFSRSYDLTRHQNTI [RPN4]	1.67 ± 0.11
GATKIVREHYLRSDIPC [DIS3]	2.63 ± 0.067
GCENPADVFRRCLVAVI [SRP72]	1.48 ± 0.048
GCLIKNLPRTKAKSVVN [RMP1]	2.52 ± 0.2
GCLNFVDENDEVLLAGF [RPS23A]	1.53 ± 0.074
GDANNRWDKEEYQSLMS [SMC1]	3.03 ± 0.29
GDDEATEIISTLSNGLI [BRR2]	3.1 ± 0.13
GDFGGWFCPCHGSHYDI [RIP1]	3.11 ± 0.078

Sequence	protein stability index
GDKEATAPLIQRKNKKN [RPN8]	3.42 ± 0.12
GDPALVYKFMSLAKSSA [ECM29]	2.77 ± 0.08
GDYGEEEDADQEESFSL [SRB8]	3.63 ± 0.17
GDYGSAKCNSLLQLKYF [POP5]	2.24 ± 0.056
GEAEAEKEEEEAKEESD [RPP1A]	3.51 ± 0.15
GEICKNYELEKIADNIS [YDL116W/NUP84]	3.12 ± 0.084
GELGEIRALQPKLKEGA [YIL149C/MLP2]	3.34 ± 0.19
GEMVGVLAAQSIGEPAT [RPO21]	2.55 ± 0.073
GENAAEKPDNSNHNNLN [SNF2]	3.25 ± 0.064
GENDDDTLDGDLMDDMS [RPN3]	2.7 ± 0.075
GENNINFQKASATLDGC [BRN1]	3.3 ± 0.21
GEVVYLRKQKDSSTTSS [ITC1]	1.73 ± 0.08
GGADQVTRTQQWSMVAQ [SWI1]	3.31 ± 0.075
GGKSVGFGLVYNSVAEA [RPS24A]	3.29 ± 0.05
GGLKNGVLYQGNIQISE [DIS3]	3.27 ± 0.085
GGQIAHILFQNNPDMMI [ROX3]	2.63 ± 0.046
GGSATARHKKKVENLDY [YML031W/NDC1]	3.38 ± 0.14
GGTNEDDFTDAIQFVKE [YCS4]	2.6 ± 0.15
GHEELKRRIEEEQEKIN [ISW2]	3.47 ± 0.086
GHIPWHILAVKKMMNTL [SSN2]	2.85 ± 0.098
GIEHFDIPPPAIMKPYY [RPO31]	2.92 ± 0.084
GIFLHGKIPTLKISLIQ [PRP8]	2.03 ± 0.035
GISDDENDEEDIYMHDV [RRP4]	3.31 ± 0.14
GISDMCRLFFTELASKD [YCS4]	2.4 ± 0.087

Sequence	protein stability index
GISRDIKALQDSLFKDV [YML103C/NUP188]	1.99 ± 0.063
GKHNLTIWCVCDSYLDA [BRR2]	2.26 ± 0.083
GKILLKGDNITLITSAD [SME1]	3.23 ± 0.1
GKIVGFDEFMNVVIDEA [SME1]	3.33 ± 0.064
GKIVSQRGKWNLKYLDN [RGR1]	2.64 ± 0.068
GKLWKDVKARIAAGDGD [QCR9]	2.58 ± 0.16
GKMNNEVSTSTSMTGDA [SWI3]	3.3 ± 0.069
GKSEKLSLLLVEDKIPL [SKI6]	2.79 ± 0.095
GLALQLFKKLKEENDEG [RPN2]	3.28 ± 0.12
GLAPDARVLSNYLRQQC [PRE5]	2.11 ± 0.21
GLARKFHNMLQTLYTGD [SSN3]	3.25 ± 0.1
GLEVGPVVQVGIFIKIL [IRR1]	2.25 ± 0.056
GLGVNRRILAAAAAAAA [SSN3]	1.52 ± 0.083
GLRAVRKNRYVILQSDL [RPT3]	3.06 ± 0.1
GLSIHPTQITQYTQRLS [SRP68]	1.93 ± 0.066
GMIYNKLFVSKEHAPYT [FAS2]	2.2 ± 0.092
GNDFKFNYQGDELVLNF [REC8]	3.42 ± 0.083
GNLSKREIQIDAVLKIF [SRB8]	2.83 ± 0.063
GNPYIELNQDRLGGDDL [SNF5]	3.24 ± 0.098
GNSERPSAVAGFINQKN [YIL149C/MLP2]	3.29 ± 0.12
GNSKDDLLDMIQFGAKN [ISW2]	2.89 ± 0.16
GNTVVDGEGKVDSISLH [YCG1]	3.53 ± 0.23
GNVLINDTLPDEISPEL [SNU114]	2.77 ± 0.097
GPAAAKPMAFSNTTTHV [MTR3]	3.28 ± 0.052

Sequence	protein stability index
GPSATDPETTATQKESL [RGR1]	2.87 ± 0.071
GQAIVVHPDYLYGAITE [FAS2]	1.88 ± 0.047
GQLLKDHLIIEPEEEKS [ARP9]	1.77 ± 0.066
GQLPQLPKLNLPKYQTI [SNF5]	2.67 ± 0.055
GRDAFHLRVRVHPFHVL [RPL10]	2 ± 0.077
GRDKHALSLLYHLLNYD [SSN3]	2.92 ± 0.057
GREGIWSKTIKARTNLH [RPC34]	1.58 ± 0.2
GRICRPLIIVSDGQSRV [RET1]	2.11 ± 0.037
GRIPLHWSVSFQAHEIT [NAS6]	2.84 ± 0.056
GRKVLQKVQGESHIDSR [SIR4]	3.33 ± 0.079
GRNIGHPIIQDKEGNGV [RPB3]	3.24 ± 0.13
GRNRGRPNRRGPRNTEE [RPS2]	3.24 ± 0.16
GRRISENGQRDLDRIAA [RPS19A]	3.42 ± 0.14
GSAELRNSYPASFYSVN [RPN3]	3.15 ± 0.11
GSEIAISSLGYRSHIFA [SWI3]	2.27 ± 0.048
GSIEEPELNVSLNLTDD [MCD1]	3.44 ± 0.05
GSIPVDQVVVRGIDTLQ [RPB3]	2.02 ± 0.076
GSIQKGMPHKFYQGKTG [RPL21A]	3.06 ± 0.16
GSIRVHKSGKLSVKIGN [RPC53]	1.44 ± 0.047
GSKLEDMSKILVDQGFN [RET1]	3.2 ± 0.072
GSKQADRMAKYLHIRDK [PGD1]	3.3 ± 0.097
GSLNATNFSPTPANNGE [SNF2]	3.07 ± 0.061
GSLTFLDNKGSGEDAEE [YIL149C/MLP2]	3.22 ± 0.12
GSMFSGDNTSDVDMEDR [RRI1]	2.55 ± 0.074
